From paper PMC4491177, “Co-translational capturing of nascent ribosomal proteins by their dedicated chaperones” (Nature Communications, 2015)

What was measured:
[1] = soluble expression in E. coli; type: physicochemical; settings: data not shown for Rpl10
RPL3 mRNA = experiment: co-translational capturing by qRT-PCR, RPL3 mRNA; type: binding, S. cerevisiae; settings: NTAP-Rrb1 purification, cycloheximide-treated cells; one representative experiment, qPCR triplicates
Description: (§1) Cells expressing Sqt1-TAP, NTAP-Rrb1, Syo1-FTpA and Yar1-TAP were grown at 30 °C in 400 ml YPD medium to an optical density (OD600) of 0.8, then cycloheximide was added to a final concentration of 0.2 mg ml^−1 and the flasks were kept, with intermittent vigorous shaking, on ice for 5 min. Cells were harvested by centrifugation for 5 min at 4 °C at 4,000 r.p.m., washed once with 20 ml of ice-cold lysis buffer (100 mM NaCl, 50 mM Tris-HCl (pH 7.5), 1.5 mM MgCl2, 0.1% NP-40 and 5% glycerol) containing 1 mM PMSF and 0.2 mg ml^−1 cycloheximide (lysis buffer-PC) and resuspended in 2 ml of lysis buffer-PC. Equal volumes of the resuspended cells were transferred into two 2.2 ml Eppendorf tubes, briefly centrifuged and resuspended in 600 μl of ice-cold lysis buffer-PC. To prevent RNA degradation, 4 μl of RiboLock (40 U μl^−1; Fermentas) was added. Then glass beads, corresponding to 1/3 of the lysis buffer volume, were added and the tubes were vigorously vortexed for 10 × 30 s with 30-s intervals on ice. Cell extracts were transferred to a new tube and, to maximize the yield, 400 μl of ice-cold lysis buffer-PC was used to rinse the glass beads. […]
(§2) For RNA isolation from the TEV eluate aliquot (∼450 μl), the TEV eluate was adjusted to 10 mM EDTA (pH 8.0) and 0.5% SDS. […] RNA concentrations (A260) were determined using a NanoDrop 1000 spectrophotometer (Thermo Scientific). […]

sqt1 mutant cells = experiment: in vivo ribosomal protein solubility assay; type: cell-based, S. cerevisiae; settings: expressed for 20 min from copper-inducible promoter; in sqt1.E315A and sqt1.E110A/D420A mutant cells; 200,000g 1 h
Description: The sqt1 mutant cells, either containing empty vector or a centromeric plasmid expressing Sqt1 from the ADH1 promoter, were grown in a volume of 100 ml to an OD600 of ∼0.7 and expression of C-terminally 2xHA-tagged Rpl10 was induced for 20 min from the CUP1 promoter with 500 μM copper sulfate. After harvesting, cells were lysed with glass beads in a buffer containing 50 mM Tris-HCl (pH 7.5), 100 mM NaCl, 1.5 mM MgCl2, 5% glycerol and 0.1% NP-40, and cell extracts were centrifuged for 3 min at 3,000 r.p.m. Then, total cell extracts, 10 A260 units in a final volume of 500 μl, were subjected to centrifugation at 200,000g for 1 h. Pellets were resuspended in 100 μl lysis buffer and equal amounts of the total extracts (T), soluble extracts (S) and pellet fractions (P) were analysed by SDS–polyacrylamide gel electrophoresis and western blotting using an anti-HA antibody.
Supplementary Figure 9 Sqt1 is required for the soluble expression of Rpl10 in yeast.
Expression of C-terminally 2xHA-tagged Rpl10 (Rpl10-2xHA) was induced for 20 min from the CUP1 promoter with 500 µM copper sulfate in sqt1.E315A or sqt1.E110A/D420A mutant cells containing empty vector (vector) or a plasmid expressing Sqt1 from the constitutive ADH1 promoter (SQT1). […]

RPS3 mRNA = experiment: co-translational capturing by qRT-PCR, RPS3 mRNA; type: binding, S. cerevisiae; settings: Yar1-TAP purification, cycloheximide-treated cells; one representative experiment, qPCR triplicates
Description: as §1, §2

RPL5 mRNA = experiment: co-translational capturing by qRT-PCR, RPL5 mRNA; type: binding, S. cerevisiae; settings: Syo1-FTpA purification, cycloheximide-treated cells; one representative experiment, qPCR triplicates
Description: as §1, §2

B1: Rrb1: dedicated chaperone of Rpl3; purified as NTAP-Rrb1 in b27 (protein, UniProt Q04225 1-511, looked up)
Ribosome assembly protein RRB1: MSKRSIEVNEEQDRVVSAKTESHSVPAIPASEEQDAPKNDLEEQLSDEFDSDGEIIEIDGDDEINDEDDLRKKQEEAETLVQKDQSEGNKEKIQELYLPHMSRPLGPDEVLEADPTVYEMLHNVNMPWPCLTLDVIPDTLGSERRNYPQSILLTTATQSSRKKENELMVLALSNLAKTLLKDDNEGEDDEEDDEDDVDPVIENENIPLRDTTNRLKVSPFAISNQEVLTATMSENGDVYIYNLAPQSKAFSTPGYQIPKSAKRPIHTVKNHGNVEGYGLDWSPLIKTGALLSGDCSGQIYFTQRHTSRWVTDKQPFTVSNNKSIEDIQWSRTESTVFATAGCDGYIRIWDTRSKKHKPAISVKASNTDVNVISWSDKIGYLLASGDDNGTWGVWDLRQFTPSNADAVQPVAQYDFHKGAITSIAFNPLDESIVAVGSEDNTVTLWDLSVEADDEEIKQQAAETKELQEIPPQLLFVHWQKEVKDVKWHKQIPGCLVSTGTDGLNVWKTISV
soluble expression in E. coli [1]: inefficient expression of soluble Rrb1 | enrichment of the specific ribosomal protein mRNA (RPL3) (RPL3 mRNA): roughly 100 -fold

B2: Rpl10-2xHA: C-terminally 2xHA-tagged Rpl10 (protein)
chain: MARRPARCYRYQKNKPYPKSRYNRAVPDSKIRIYDLGKKKATVDEFPLCVHLVSNELEQLSSEALEAARICANKYMTTVSGRDAFHLRVRVHPFHVLRINKMLSCAGADRLQQGMRGAWGKPHGLAARVDIGQIIFSVRTKDSNKDVVVEGLRRARYKFPGQQKIILSKKWGFTNLDRPEYLKKREAGEVKDDGAFVKFLSKKGSLENNIREFPEYFAAQA
modifications: left off: 2xHA, C-terminal, kept
notes: C-terminally 2xHA-tagged Rpl10
solubility of newly synthesized Rpl10-2xHA (sqt1 mutant cells): strongly reduced

B3: Yar1: ankyrin-repeat protein, chaperone of Rps3 (protein)
chain: MGLHSEPLDQEDQDTIILDARAGDLDSLKDIFTTLVSPELLSTCKESESDSTALHMAAANGHIETVRYILETVSRANSAEDLKAFVNEVNKTGNTALHWASLNGKLDVVKLLCDEYEADPFIRNKFGHDAIFEAENSGKEEVETYFLKKYDVEPEDDEEDTQTEGKNSVQITKGTEIEQVTKEATEALREETEKLNINKD
modifications: left off: TAP, end not stated, kept
notes: ankyrin-repeat protein, chaperone of Rps3
enrichment of the specific ribosomal protein mRNA (RPS3) (RPS3 mRNA): roughly 100 -fold

B4: Syo1: transport adaptor, chaperone of Rpl5 (and Rpl11) (protein)
chain: MGRSKKRSRASSSRLNPLRKAGSNDNNKDTNVVNKKLQPLLQNLSSVVPNDRSIALSSISVLCEDAHMRQLLLKEKLVPIILNKLLNDSNSDIVVESFGLLRNLSLEEGYDVSIYLWRSDIWTSITSNFGRIVESLSALQAAEQQPQLKPAGKSKIESKRLLFDFADNLLSLVVALSNGSDDILNEILTESKINEIFQVISQLLKYGVEKLPINLFNTTLDLIYDLSSESFEFIDHVSNNELLSQFLNGLSPALHPQANELTKVLIEGIHCQFLDMKITYDQCNKMIHSVCHSINNIDPVQLVNDINNPVEIGPATSKDESSKVITKIKDYNAKRNESMIKLQSIEIAIDLITAIIEIVASKYESPESQEVAIPEELINTLTNFLPHVFMILKDTFTSRILIGWNNLIWLFVSLSLTELSGELLTTLWSYVTQLDSQDDLSIKIGRMGCIWALLKLIFPDGAFESENRALINVQMLNNSGFARGIIEEFQNNNDLELQQKCINVLSTYAMIQGQIDANKEIGQFFIQTLTQLNVRPEILIEMTNSLFQIYGDASYDYNEPIFVRGGFLSILKDQVVPNLRQQFKMVDKNKNPELKERCHDCFTTLDSFIHYKMNENSTNQ
modifications: left off: FTpA, end not stated, kept
enrichment of the specific ribosomal protein mRNA (RPL5) (RPL5 mRNA): roughly 100 -fold
